Here are results for two compounds from patent publication US7351553B2, “BK beta subunits of Slo family potassium channels” (Icagen, Inc., priority 1999, dated 2008).

For one test, the target named is T1, Slo-1 (Homo sapiens, UniProt Q12791).
T1 construct: expressed in transfected cells; host or cells: HEK293
The test is described as follows: Whole-cell voltage-clamp of membrane currents in HEK293 cells expressing Slo-1 alone. In kind it is cell-based. The conditions noted are these: 250 ms depolarizing steps from holding potential -80 mV; for inhibition (block) of membrane currents: CTX 100 nM. As to the method:
(§1) FIG. 6. Slo-1/BKB3 forms BK type II-like charybdotoxin-(CTX) insensitive channels. Slo-1 (A) or Slo-1+BK beta 3 (B) were expressed in HEK293 cells and membrane currents measured using the whole-cell voltage-clamp technique. […]. In contrast, membrane currents in cells co-expressing Slo-1 and BK beta 3 were TEA (5 mM) sensitive but CTX (100 nM) insensitive (FIG. 6B). Similar recordings were made from 4 cells expressing Slo-1 alone and 6 cells co-expressing Slo-1/BKB3. Scale bars represent InA and 200 ms.

A further test deals with T2, Slo-1/BKB3 (Homo sapiens, UniProt Q12791).
T2 construct: expressed in transfected cells; host or cells: HEK293
T2 sequence (Q12791 whole entry): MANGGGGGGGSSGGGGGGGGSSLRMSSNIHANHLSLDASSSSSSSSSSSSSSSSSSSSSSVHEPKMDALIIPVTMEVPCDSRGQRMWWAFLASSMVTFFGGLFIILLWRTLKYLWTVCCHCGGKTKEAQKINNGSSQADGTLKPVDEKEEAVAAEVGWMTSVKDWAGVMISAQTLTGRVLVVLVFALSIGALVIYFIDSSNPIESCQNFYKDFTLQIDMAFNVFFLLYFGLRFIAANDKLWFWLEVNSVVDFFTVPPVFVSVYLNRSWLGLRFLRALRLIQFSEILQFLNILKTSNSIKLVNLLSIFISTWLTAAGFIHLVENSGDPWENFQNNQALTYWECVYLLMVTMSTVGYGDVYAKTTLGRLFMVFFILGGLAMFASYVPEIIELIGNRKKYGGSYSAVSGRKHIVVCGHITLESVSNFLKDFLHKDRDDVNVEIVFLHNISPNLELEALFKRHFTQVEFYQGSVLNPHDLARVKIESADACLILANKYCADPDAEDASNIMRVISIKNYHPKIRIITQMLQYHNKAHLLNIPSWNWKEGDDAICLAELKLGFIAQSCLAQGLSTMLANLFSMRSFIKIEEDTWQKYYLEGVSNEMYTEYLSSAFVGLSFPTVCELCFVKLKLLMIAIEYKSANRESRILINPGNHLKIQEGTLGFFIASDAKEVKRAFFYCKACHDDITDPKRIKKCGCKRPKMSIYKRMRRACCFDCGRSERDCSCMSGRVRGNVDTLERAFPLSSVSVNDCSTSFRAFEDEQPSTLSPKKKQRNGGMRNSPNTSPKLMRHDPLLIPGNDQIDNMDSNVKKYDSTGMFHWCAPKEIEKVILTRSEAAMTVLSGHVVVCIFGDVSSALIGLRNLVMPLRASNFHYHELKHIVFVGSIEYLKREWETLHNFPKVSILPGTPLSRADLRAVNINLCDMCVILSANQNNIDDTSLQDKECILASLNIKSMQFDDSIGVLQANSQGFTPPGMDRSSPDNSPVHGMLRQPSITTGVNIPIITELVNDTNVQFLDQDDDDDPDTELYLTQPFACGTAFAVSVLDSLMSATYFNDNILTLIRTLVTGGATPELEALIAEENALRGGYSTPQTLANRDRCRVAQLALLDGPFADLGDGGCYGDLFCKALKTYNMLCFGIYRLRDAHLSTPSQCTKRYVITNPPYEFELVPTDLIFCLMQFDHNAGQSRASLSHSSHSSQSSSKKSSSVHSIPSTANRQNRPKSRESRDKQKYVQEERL
T2 sequence (Q86W47 whole entry partner): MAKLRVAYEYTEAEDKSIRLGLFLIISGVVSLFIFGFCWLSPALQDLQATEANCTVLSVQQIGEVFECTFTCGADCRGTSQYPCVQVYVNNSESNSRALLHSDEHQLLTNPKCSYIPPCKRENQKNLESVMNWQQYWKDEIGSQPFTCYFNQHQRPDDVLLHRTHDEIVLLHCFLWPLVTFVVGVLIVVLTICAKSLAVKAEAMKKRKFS
Nature of the test: Whole-cell voltage-clamp of membrane currents in HEK293 cells co-expressing Slo-1 and BK beta 3. The format is cell-based. The conditions noted are these: for sensitivity (block) of membrane currents: CTX 100 nM. As to the method: as §1

T1 sequence (Q12791 whole entry): as the sequence (Q12791 whole entry) above

For the compound `CC[N+](CC)(CC)CC` [TEA], the “inhibition of membrane currents” value against Slo-1 (TEA 5 mM) is recorded as “strongly inhibited”. On Slo-1/BKB3 (TEA 5 mM), the “sensitivity of membrane currents” value is given as “sensitive”.
charybdotoxin [CTX]: the “inhibition (block) of membrane currents” value with Slo-1 was “strongly inhibited”; in the test with Slo-1 (listed as charybdotoxin), “almost completely blocked”. For the same compound, the entries for the “sensitivity (block) of membrane currents” value with Slo-1/BKB3 and with Slo-1/BKB3 (listed as charybdotoxin) were “insensitive” and “virtually unblocked”, respectively.
